# Literature values as cited in patent US20250064829A1, “METHODS OF USING ANTI-CD79B IMMUNOCONJUGATES TO TREAT DIFFUSE LARGE B-CELL LYMPHOMA” (Genentech, Inc., priority 2019, published 2025).
# Legend:
# [1] = 1000 mg/m^2 at fixed dose rate of 10 mg/m^2/min compared to the standard 30-minute IV schedule
# human CD20 antigen [2] = target: T1, human CD20 antigen (Homo sapiens, UniProt P11836); details: in vitro mechanism of action studies (Reff et al. 1994)
# T1 sequence (P11836 1-297): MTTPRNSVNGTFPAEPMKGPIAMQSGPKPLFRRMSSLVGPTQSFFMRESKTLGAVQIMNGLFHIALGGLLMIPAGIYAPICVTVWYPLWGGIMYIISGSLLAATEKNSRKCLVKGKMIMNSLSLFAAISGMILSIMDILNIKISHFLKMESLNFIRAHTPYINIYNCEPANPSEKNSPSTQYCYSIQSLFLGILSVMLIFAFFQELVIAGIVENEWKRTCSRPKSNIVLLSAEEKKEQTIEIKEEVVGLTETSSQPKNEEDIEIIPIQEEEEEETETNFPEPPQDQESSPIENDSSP
# human CD20 antigen [3] = target: T1, human CD20 antigen; details: in vitro
Compound,intracellular drug concentrations [1],human complement-dependent cytotoxicity (CDC) (human CD20 antigen [2]),activity in assays that measure antibody-dependent cellular cytotoxicity (ADCC) (human CD20 antigen [3])
"Cl.Nc1ccn([C@@H]2O[C@H](CO)[C@@H](O)C2(F)F)c(=O)n1 [gemcitabine, 2′-deoxy-2′,2′-difluorocytidine monohydrochloride]",superior intracellular drug concentrations,,
rituximab: anti-CD20 antibody having the CAS Registry Number 174722-31-7; type I anti-CD20 antibody,,exhibits human complement-dependent cytotoxicity (CDC),exhibits activity
